Experimental data: paper PMC3062207

Columns and labels:
[1] = biological target: YU2gp140 (cleavage-deficient, trimeric HIV-1 Env gp140 with T4 fibritin trimerization motif) (HIV-1 isolate YU2 | bacteriophage T4); experiment: SEC
[2] = biological target: YU2gp140:gpD fusion protein (HIV-1 isolate YU2 | bacteriophage T4 | bacteriophage lambda); experiment: SEC

Substance | stoichiometry N [1] | stoichiometry N [2]
YU2gp140 (cleavage-deficient, trimeric HIV-1 Env gp140 with T4 fibritin trimerization motif) | 3 | 
YU2gp140:gpD fusion protein |  | 3
